The numbers were not newly measured in article PMC11313252, which cites them from elsewhere.

pKd: −log10 of the molar value.

The series addresses EGFR (Homo sapiens) (UniProt P00533).

For the substance EGF (from UniProt P01133), the negative logarithm of the Kd (pKd) – broadly, −log10 of the Kd, conventionally taken in molar units – was 8.70.
